Results reported in paper PMC5976436, “Structure of a TRPM2 channel in complex with Ca^2+ explains unique gating regulation” (eLife, 2018).

Target: the molecule itself
Assay: cryo-EM structure; purified nvTRPM2 in Buffer A (20 mM Tris-HCl pH 8.0, 150 mM NaCl, 0.06% digitonin, 1 mM DTT), 5 mg/ml, trace amounts of Ca2+, no ADPR; C4 symmetry

B1: Nematostella vectensis TRPM2 channel (transient receptor potential melastatin 2) (natural protein, UniProt A7T1N0 1-1551, looked up)
chain: MGKDSFTPLYDGGDSSHVHLNKFGSNQLSQSKKSWIARNFSRRECIRFVPKSHDVSRCKCGRPRERHSQQALESGQGSEEWNVASCTTKHPTNAYGEIDFEGYGGQKRAPYLRMSHDTDANLVITLMLKRWNLEIPNLVISVTGGAKSFVLKPRLREMFRRGLIKAAKTTGAWIITGGTNTGVMKHVGEAVKEQQLMFGSDTQVNVIGIATWGIVDKQSDLISEKNGKYPALYSMEPTPGHQGAMLDPNHSHFFLVDDGTEGKYGVEIGMRSRIEEAIMKVKTDSRSEAGSIGVPVVLLVLEGGPNTVATMYELIKKKVPAVVIDGSGRAASVVGFAYNHTIKRNVDGQTINVIDPQYEDEVRAKVVEVFGAKGADKTYSMIKDVLEDEKMISVYSLDGEISQDIDLAILKALLKANRSSPVAQLNLALAWNRIDLAKSDIFTEEQQWTTETLSAAMLTALLDDKAEFAELFLQNGLSMREFLSLDILCKLYAEVPGNTTIKPLLQKEMGKRQVKTIDMDVVGEVIEELMGDMFESYYRKDGHYFGELASYAEGLVLKNRKSSKDLLANINRIDPLPTPYLDVFLWAVLCNRRELARVLWEAGREPMAAALMASRLLKRMASRAQEDNTITDISSDLYDHARLFEERAVGVLDECFNENETLSQTLLVRELDHYSRMTALELAVSAESQDFIAHTSCQVLLTRLWMGTMAMNTRWWKVLVCLYLPVLIFPIIYFVPDEQHERQAAEREHQKSLNQKSSKVKSHKEKNDAPVVPVYRSKEEKAVSNDEEARVGTENEEEDFQLEDYIPEIREDDSMEVIMRNKKLGFCDRIMHFYSAPFSKFVGNVVGYLAFIFLYAYVVLFNFPRFDPAKTLGGIHPTEIVLYFWVFTILIEEIRQLAAKPPKYIKDKVSVYFSDTWNFVDIFSLTVFIIAIILRFFTNSRIFTASRIILSLDIIFFIVRSLQIFSVNRLLGPKLVMIQKMMQDLAQFIIILAVFTIAYGIALHAVMFPSPGIYARNNTWVTITSVVQYPYWQMYGELFLDEIQGEKPKEFGEVDPDGRWLSPLLLAIYMVFTNILLLNLLIAIFNYTFERVQEDSDKVWKFQRYDLVQEYHSRPVFAPPLVLLGHILIFIRWVWRMCRCGHPPRGSTMKIGLSPAEMEQMDNWEFQAAEMYIHQQQQKNSGTLEERVRALGDRVDCINSQLNRVLDSMSGTRAHALTDGNGLEGGHDSEGRLARMEVELSSNSESLQKILALLQQQPPVKGQAAVPIQLTLLHYKARSSPYPGSTAKRFAVQDNMVDWQVPFPDYKPVNYTAPVVLANPVWADKDLMAMSPRPELPYNQMDHTCNVNRVSYNGTYVVKDGLPLNPMGRTGMQGRGLLGRFGPNHAADPVVTRWKRTSAGVMLQGGKKVLEFVAIQRKDNNQWAIPGGMVEPGQLVTQALKAEFGEEAMAKLNVSQEEKERIAKQIERLFQQGQEIYKGYVDDPRNTDNAWMETVAVNFHDDKGDLFGDITLQAGDDAAAVRWQRVSGNIPLYASHVSILEKVAKMRDAAF
modifications: two N-acetylglucosamines attached to N1017
notes: TRPM2 of Nematostella vectensis, full-length protein; synthesized gene; the C-terminal NUDT9H domain is residues 1271-1551; model holds residues 6-23, 41-51, 86-546, 573-755, 812-1136 and 1148-1210; the NUDT9H domain is present in the protein but not seen in the map; also called nvTRPM2; not shown: GFP, C-terminal, cleaved
  stoichiometry N: 4
